# In US20110286916A1 (published 2011):
# Positions count from the first letter of the chain named.
# B1: FL-SKNAS-C2-384 (antibody, human IgG1, lambda, V domains shown)
# VH: EVQLVQSGAEVKKPGSSVKVSCKASGGTLSSSAISWVRQAPGEGLEWMGGIIPMFDSTNYAQKFQGRVTITADESTSTAFMELSSLRSDDTAVYYCGRDPYYDRLSGGGYMDVWGQGTLVTVSS
# VL: SYVLTQPPSVSGALRQTATVTCTGNSSNVGNQGAAWLRQHQGRPPKLLSYRNNDRPSGVSQRFSASTSGNTASLTITGLQSEDEADYFCSAWDSSRSGWVFGGGTKLTVLG
# B2: A673-C2-110 (antibody, human IgG1, lambda, V domains shown)
# VH: QVQLVQSGTEVKKPGASVRVSCKPSADTFTSYYVHWVRQAPGQGLEWMGTINPTGTYTRYAQQFQGRVTVTRDTSTSSVYMELSSLRSEDSAVYYCARDVRPYTAMYSFDNWGRGTTVTVSS
# VL: SYVLTQPPSVSVSPGQTATITCSGDALPKQYANWYQQKPGQAPVLMIYKDSDRPSGIPERFSGSSSGTKATLTISGVQAEDEADYYCQSADNSGTNYVFGTGTKLTVLG
# B3: WC-75 (antibody, human IgG1, lambda, V domains shown)
# VH: GVQLVQSGGGLVQPGGSLRLSCAASGFTFDDYAMHWVRQAPGKGLEWVSSISWHSRTIAYADSVKGRFSISRDNAKNSLYLQMNSLRPEDTAVYYCAKASYLSTSSSLDYWGRGTLVTVSS
# VL: QSVLTQPGSVSGSPGQSITISCTGTSSDVGGYNYVSWYQQHPGKAPKLMIYEGSKRPSGVSNRFSGSKSGNTASLTISGLQAEDEADYYCSSYTTRSTRVFGGGTKLTVLQ
# B4: WC-629 (antibody, human IgG1, lambda, V domains shown)
# VH: EVQLVQSGAEVKKPGSSVKVSCKASGGTLSSYTVSWLRQAPGQGLEWMGRIIPILDRANYAQKFQGRVTITADKSTSTAYMELNSLRSDDTAVYYCARSIGAAGDGVWFDPWGQGTMVTVSS
# VL: QAVLTQPSSVSGAPGQRVTISCTGSSSNIGAGYDVHWYQQLPGTAPKLLIFDNKNRPSGVPDRFSGSNSGTSASLAITGLQAEDEAEYYCQSYDNNLSGRVFGGGTKLTVLQ
# B5: hN1wc-179 (antibody, human IgG1, lambda, V domains shown)
# VH: EVQLVQSGAEVKKPGASVKVSCKASGYNFTGYYMHWVRQAPGQGLEWMGWINPNSGGTNYAQKFQGRVTMTRDTSISTAYMELSRLRSDDTAVYYCATDSFDYWGQGTMVTVSS
# VL: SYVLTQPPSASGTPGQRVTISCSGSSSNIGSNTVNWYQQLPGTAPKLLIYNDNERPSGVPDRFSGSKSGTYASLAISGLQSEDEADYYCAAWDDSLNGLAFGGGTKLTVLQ
# B6: HN1S3-133 (antibody, human IgG1, lambda, V domains shown)
# VH: QVQLVQSGPEVKKPGTSVKVSCKASGFTFTSSAVQWVRQARGQRLEWIGWIVVGSGNTNYAQKFQERVTITRDMSTSTAYMELSSLRSEDTAVYYCVADTVYWGQGTLVTVSS
# VL: QSVLTQPPSVSEAPRQRVTISCSGSSSNIGNNAVNWYQQLPGEAPKLLIYYDDLLPSGVSDRFSGSKSGSSASLAISGLQAEDEADYYCATWDDSLNAWVFGGGTKVTVLQ
# B7: HN1S3-147 (antibody, human IgG1, lambda, V domains shown)
# VH: B6 VH with Q105K
# VL: not shown
# B8: N1wc39 (scFv, V domains shown)
# VH: EVQLVQSGAEVKKPGASVKLSCKTSGHTFTNYAFHWLRQAPGQRPEWLGWINADNGNTKYSQSFQDRVTITRDISANTAYMEMSRLKSEDTAYYYCARDPWSGVLDHWGKGTLVTVSS
# VL: DIQLTQSPSSVSASIGDTVTITCRASQNINKWLAWYQQKPGKAPYLLISTASNLQSGVPSRFSGTGSGTAFTLTISRVQPEDFANYYCQQAFSFPITFGQGTRLEIK
# notes: phage scFv
# B9: N1wc621 (scFv, V domains shown)
# VH: EVQLVQSGAEVKKPGASVKVSCKASGYTFTGYYIHWVRQAPGQGLEWMGWISPNSGVTNYAQRFQGRVTMSRDTSITTAYMELNRLGSDDTAVYYCAREGREDGVLFDYWGRGTLVTVSS
# VL: QAVLTQPSSVSGAPGQTVTISCAGSSSNLGAGYDAHWYQHLPGAVPRLLIYNNSKRPSGVPDRFSASKSGSSASLAITGLQPEDEADYYCQTYDTRLSGSMLFGGGTKVTVL
# notes: phage scFv
# B10: N1wc319 (scFv, V domains shown)
# VH: B5 VH with E1Q, K12E, Q106R, M109L
# VL: QSVLTQPPSSSGTPGQRVTISCSGSSSNIGSNSVNWYQQLPGAAPKLLIYSDNQRPSGVPDRFSASKSYTSASLAISGLQSGDEADYFCATWDDSLTGLVFGGGTKLTVL
# notes: phage scFv
# B11: N1wc586 (scFv, V domains shown)
# VH: QVQLVQSGPEVKKPGASVKVSCKAAGYTFPDFYMHWVRQAPGKGPEWVGWINSNSGSTRLAERLEGRVTLTRDTSISTAYMELTSLTSDDTAVYYCARGAYDYVWGTSRYVADAFDIWGQGTLVTVSP
# VL: DIVMTQSPSTLSASVGDRVTITCRASQGISSWLAWYQQKPGRAPKVLIYKASTLESGVPSRFSGSGSGTDFTLTISSLQPEDFATYYCQQSYSTPWTFGQGTKLEIK
# notes: phage scFv
# B12: N1wc570 (scFv, V domains shown)
# VH: B6 VH with Q105R, L108M
# VL: QSVLTQPPSASATPGQTVTISCSGSTSNIGNNNVNWYQQVPGTAPKLLMYSNNQRPSGVPDRFSGSRSGTSASLAITALQSEDEADYYCATWDDSLSAWVFGGGTKVTVL
# notes: phage scFv
# B13: N1wc535 (scFv, V domains shown)
# VH: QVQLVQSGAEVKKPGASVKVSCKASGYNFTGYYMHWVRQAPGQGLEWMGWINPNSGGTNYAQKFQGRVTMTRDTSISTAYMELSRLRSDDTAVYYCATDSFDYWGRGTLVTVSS
# VL: QSVLTQPPSASGTPGQRVTLSCSGSSSNIGSNTVNWYQQLPGTAPKVLIYSDNQRPSGVPDRFSGSKSGTSASLAISGLQSDDEAVYYCAGWDDSLNAYLFGTGTKVTVL
# notes: phage scFv
# B14: N1wc301 (scFv, V domains shown)
# VH: QVQLQQSGAEVKKPGASVKVSCKASGYIFGTYAIHWVRQAPGQSLEWMGWINAGTGNTKYSQKFQGRVTITMDTSATTAYMELSSLRSGDTAVYYCTRGDYYDSRGYYNRFDYWGRGTLVTVSS
# VL: QSVVTQPPSASGTPGQRVTISCSGSSSNIGKNNVYWYQQLPGAAPKLLIYRNHERASGVPDRFSGSKSGTSASLAISGLQSEDEADYYCAARDDSLNGYVFGTGTKVTVL
# notes: phage scFv
# B15: N1wc441 (scFv, V domains shown)
# VH: QVQLVQSGAEVKKPGASVKVSCKAPGYSFTDYYLHWVRQAPGIGLEWVGWINPNNGGTNYAQKFRGRVTMTRDTAINTAYMDMRWLRSDDTAVYYCATDGPPGTGNAFDIWGRGTLVTVSS
# VL: SYELTQPPSVSVSPGQTARITCSGDALPDKYVHWYQQKSGQAPVLVLFDDSKRPSGIPERFSGSSSGTVATLIISGAQVEDEGDFFCYSTDSSGNERVFGGGTKLTVL
# notes: phage scFv
# B16: N1wc45 (scFv, V domains shown)
# VH: EVQLVQSGAEVKKPGASVKVSCKASGYSFRSYGIVWVRQAPGQGLEWMGWISAYNGNTNYAQKLQGRVTMTTDTSTSTAYMELRSLRSDDTAVYYCVRGDRHYDILTGYSPVWFDPWGKGTTVTVSS
# VL: SSELTQDPAVSVALGQTVRITCQGDSLRSYYASWYQQKPGQAPVLVIYGKNNRPSGIPDRFSGSSSGNTASLTITGAQAEDEADYYCNSRDSSGNHVVFGGGTKLTVL
# notes: phage scFv
# Target: T1, human Notch3-Gal4 chimeric receptor on U2OS FlpIn TREx cells (human, UniProt Q9UM47 40-2321)
# Assay: cell-based or functional assay
row,Binder,"hN3, inhibition of Luc activity at [166 nM] Mab [%]"
1,B1,< 5
2,B2,< 10

# Target: T1, human Notch3-Gal4 chimeric receptor on …
# Assay: cell-based or functional assay
# Remark: another data set of the same source
row,Binder,"hN3, inhibition of Luc activity at [166 nM] Mab [%]"
1,B3,< 10
2,B4,< 10

# Target: T2, Notch1 extracellular fragment (amino acid 19-526) Fc fusion protein, R&D Systems 3647-TK (human, UniProt P46531 19-526)
# T2 construct: bought protein; also called Notch1/Fc; Notch1-ECD Fc fusion protein; not shown: Fc of the bought fusion protein
# Assay: BIAcore SPR, Notch1/Fc on CM5, Mab analyte, 1:1 binding
# Procedure: All experiments were performed at 25° C. at a flow rate of 40 μl/min. […] FC1 was used as the reference cell. Specific signals were the results of differences of signals obtained on FC2 versus FC1. […] The dissociation phase of the analyte was monitored over a period of time ranging 10-30 minutes. Running buffer was also injected under the same conditions as a reference.
# Equilibrium dissociation constant (KD) was calculated by the ratio between dissociation (koff) and association (kon) rate constants.
Binder,Kd [nM],koff [s⁻¹],kon [M⁻¹ s⁻¹]
B5,7.36,0.00363,493000
B6,0.649,0.0004,616000
B7,0.269,0.000285,1.06e+06

# Target: T3, human full-length Notch3 with C-terminal FLAG tag, stably expressed on 293 FlpIn (TREx) cells (human, UniProt Q9UM47 40-2321)
# T3 construct: whole, on cells; made by the same strategy as the Notch1 line; also called 293-N3; hN3
# Assay: FACS, phage scFv
row,Binder,binding result
1,B8,binds
2,B9,binds
3,B10,binds
4,B11,binds
5,B12,binds
6,B13,binds
7,B14,binds
8,B15,binds
9,B16,binds

# Target: T4, human full-length Notch1 with C-terminal FLAG tag, stably expressed on 293 FlpIn (TREx) cells (human, UniProt P46531 19-2555)
# T4 construct: tetracycline/doxycycline-induced expression from pcDNA5/FRT/TO-HN1+FLAG; also called hN1; 293_N1
# Assay: FACS, phage scFv
row,Binder,binding result
1,B8,binds
2,B9,binds
3,B10,binds
4,B11,binds
5,B12,binds
6,B13,binds
7,B14,binds
8,B15,binds
9,B16,binds
